Experimental findings from US6642355B2, “Endothelin-antagonizing peptide” (priority 1991, dated 2003) are described below.

Like-named read-outs stand apart in the source and are kept apart here. Bridge positions count the residues as written; N and C are the ends. Square brackets hold non-standard residues; d marks the D form. Ends that are not written are not given here. Peptide text beside a SMILES is read from it. 2Nal = N[C@@H](Cc1ccc2ccccc2c1)C(=O)O

In assay [1] the target is T1, endothelin receptor (Bos taurus, UniProt P28088).
T1 construct: from tissue; host or cells: bovine cerebellar membrane fraction
T1 sequence (P28088 27-441): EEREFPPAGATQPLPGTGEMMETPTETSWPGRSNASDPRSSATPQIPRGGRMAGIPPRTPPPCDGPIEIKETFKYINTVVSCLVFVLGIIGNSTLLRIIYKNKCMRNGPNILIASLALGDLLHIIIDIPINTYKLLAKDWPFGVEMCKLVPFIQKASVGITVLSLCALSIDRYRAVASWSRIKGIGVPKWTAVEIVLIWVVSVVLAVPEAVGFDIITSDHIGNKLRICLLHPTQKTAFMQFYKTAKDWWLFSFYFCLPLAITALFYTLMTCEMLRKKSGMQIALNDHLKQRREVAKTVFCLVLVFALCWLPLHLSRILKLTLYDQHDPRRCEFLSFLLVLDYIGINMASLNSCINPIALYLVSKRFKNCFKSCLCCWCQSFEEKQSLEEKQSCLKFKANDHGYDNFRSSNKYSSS
Kind of assay: Endothelin receptor-antagonizing effect: 125I-endothelin-1 binding to bovine cerebellar tissue membrane fraction.

The target of assay [2] is endothelin receptor of bovine cerebellar tissue (membrane fraction) (bovine). Briefly: 125I-endothelin-1 displacement, bovine cerebellar membrane fraction.

For `CC[C@H](C)[C@H](NC(=O)[C@H](Cc1c[nH]c2ccccc12)NC(=O)[C@@H]1CC(=O)NCC(=O)N[C@@H](CC(N)=O)C(=O)N[C@@H](Cc2c[nH]c3ccccc23)C(=O)N[C@@H](Cc2c[nH]cn2)C(=O)NCC(=O)N[C@@H]([C@@H](C)O)C(=O)N[C@@H](C)C(=O)N2CCC[C@H]2C(=O)N1)C(=O)N[C@H](C(=O)N[C@@H](Cc1c[nH]c2ccccc12)C(=O)O)[C@@H](C)CC` [Compound I-27] (GNWHGTAPDWIIW-OH; lactam N-9), the IC50 (commonly the concentration needed to halve the response being measured) in assay [1] is more than 6000 nM. For the molecule `CC[C@H](C)[C@H](NC(=O)[C@H](CC(=O)O)NC(=O)[C@H](CC(C)C)NC(=O)[C@H](Cc1c[nH]cn1)NC(=O)[C@H](C)NC(=O)[C@H](Cc1ccc(O)cc1)NC(=O)[C@H](Cc1ccc(O)cc1)NC(=O)[C@H](CC(N)=O)NC(=O)[C@H](Cc1ccccc1)NC(=O)[C@H](Cc1ccccc1)NC(=O)[C@H](Cc1c[nH]c2ccccc12)NC(=O)[C@@H]1CC(=O)NCC(=O)N[C@@H](CC(N)=O)C(=O)N[C@@H](Cc2c[nH]c3ccccc23)C(=O)N[C@@H](Cc2c[nH]cn2)C(=O)NCC(=O)N[C@@H]([C@@H](C)O)C(=O)N[C@@H](C)C(=O)N2CCC[C@H]2C(=O)N1)C(=O)N[C@H](C(=O)N[C@@H](Cc1c[nH]c2ccccc12)C(=O)O)[C@@H](C)CC` [Compound I-40] (GNWHGTAPDWFFNYYAHLDIIW-OH; lactam N-9 (inferred); C-terminus assumed), the IC50 in assay [1] (bovine cerebellar tissue membrane fraction) was more than 45 nM. On to `C[C@@H]1NC(=O)[C@H]([C@@H](C)O)NC(=O)CNC(=O)[C@H](Cc2c[nH]cn2)NC(=O)[C@H](Cc2c[nH]c3ccccc23)NC(=O)[C@H](CC(N)=O)NC(=O)CNC(=O)C[C@@H](C(=O)N[C@@H](Cc2c[nH]c3ccccc23)C(=O)N[C@@H](CC(N)=O)C(=O)N[C@@H](Cc2ccc(O)cc2)C(=O)N[C@@H](Cc2ccc(O)cc2)C(=O)N[C@@H](Cc2c[nH]c3ccccc23)C(=O)O)NC(=O)[C@@H]2CCCN2C1=O` [Compound I-32] (GNWHGTAPDWNYYW-OH; lactam N-9), for which, in assay [1], the IC50 is more than 570 nM. Turning to GNWHGTAPDWFFNYYWW (lactam N-9) [Compound (I-18)], the IC50 in assay [2] was 36 nM. In assay [2], GNWHGTAPDWFFNYYWVYFAHLDIIW (lactam N-9) [Compound (I-20)] returned an IC50 of 300 nM.

For the molecule GNWHGTAPDWFFNYY[2Nal]-OH (lactam N-9) [Compound (I-49)], in assay [2], the IC50 was 6.3 nM. On to GNWHGTAPDWFFNYYWWFFNYYW (lactam N-9) [Compound (I-19)], for which, in assay [2], the IC50 stood at 370 nM. Consider GNWHGTAPDWFFNYY (lactam N-9) [Compound (I-17)], for which the IC50 in assay [2] amounted to 54 nM.
